Source: patent US10954305B2 (Immunomedics, Inc., priority 2016, dated 2021)
Read-outs that look alike come from different tables or passages of the source.

How the values were obtained:
[1] = system: triple-negative breast cancer; experiment: Phase I/II clinical trial of IMMU-132, TNBC; type: in vivo, human
From the text: […] […] Previous treatments included cyclophosphamide, doxorubicin, carboplatin, gemcitabine, capecitabine, eribulin, cisplatinum, anastrozole, vinorelbine, bevacizumab and tamoxifen. […] The median time to progression in this heavily pretreated population of TNBC patients was 9.4 months, with a range of 2.9 to 14.2 months to date. However, 72% of patients in the study were still ongoing treatment.

[2] = system: metastatic pancreatic cancer; experiment: Phase I/II clinical trial of IMMU-132, PDC; type: in vivo, human
[3] = system: colorectal cancer; experiment: Phase I/II clinical trial of IMMU-132, CRC; type: in vivo, human
[4] = Phase I/II clinical trial of IMMU-132, pharmacokinetics; conditions: for serum hRS7 IgG, Max / serum hRS7 IgG, Min / serum intact ADC, Max / serum intact ADC, Min / serum hRS7 IgG, Mean / serum intact ADC, Mean: 0.5 h after first dose
Procedure: SN-38 was measured by HPLC.
Blood samples were taken within ˜30 min from the end of the infusion (e.g., peak) and then prior to each subsequent injection (e.g., trough). […] Serum samples from seven patients also were assayed for SN-38 content, both total (representing SN-38 bound to the IgG and free) and free SN-38 (i.e., unbound SN-38).

[5] = system: small cell lung cancer
[6] = system: diverse metastatic solid cancers; experiment: Phase I/II clinical trial of IMMU-132, all tumor types; type: in vivo, human
Procedure: Dose escalation followed a standard 3+3 scheme with 4 planned dose levels and dose delay or reduction allowed. Twenty-five patients (52-60 years old, 3 median prior chemotherapy regimens) were treated at dose levels of 8 (N=7), 10 (N=6), 12 (N=9), and 18 (N=3) mg/kg. […] Lower doses were acceptable for extended treatment with no treatment-related grade 4 toxicities and grade 3 toxicities limited to fatigue (N=3), neutropenia (N=2), diarrhea (N=1), and leukopenia (N=1). […] No pre-selection of patients based on tumor Trop-2 expression was undertaken.
The trial was designed as a standard 3+3 Phase I design, starting at a dose of 8 mg/kg per injection, with dosages given weekly for 2 weeks in a 3-week treatment cycle.
Prior to the start of each infusion, most patients received acetaminophen, anti-histamines (H1 and H2 blockers), and dexamethasone. Prophylactic use of antiemetics or anti-diarrheal medications was prohibited. Therapy consisted of 2 consecutive doses given on days 1 and 8 of a 3-week treatment cycle, with the intent to allow patients to continue treatment for up to 8 cycles (i.e., 16 treatments) unless there was unacceptable toxicity or progression. Patients showing disease stabilization or response after 8 cycles could continue treatments.

[7] = tolerability in Cynomolgus monkeys; type: in vivo
Procedure: FIG. 6C. […] All animals were bled on day −1, 3, and 6. Four monkeys were bled on day 11 in the 0.96 mg/kg group, 3 in the 1.92 mg/kg group. Changes in neutrophil counts in Cynomolgus monkeys.
FIG. 6D. […] All animals were bled on day −1, 3, and 6. Four monkeys were bled on day 11 in the 0.96 mg/kg group, 3 in the 1.92 mg/kg group. Changes in platelet counts in Cynomolgus monkeys.

[8] = system: p21^Waf1/Cip1 in Calu-3; experiment: p21Waf1/Cip1 expression; type: cell-based, human
From the text: SN-38 is known to activate several signaling pathways in cells, leading to apoptosis (e.g., Cusack et al., 2001, Cancer Res 61:3535-40; Liu et al. 2009, Cancer Lett 274:47-53; Lagadec et al., 2008, Br J Cancer 98:335-44). Our initial studies examined the expression of 2 proteins involved in early signaling events (p21^Waf1/Cip1 and p53) and 1 late apoptotic event [cleavage of poly-ADP-ribose polymerase (PARP)] in vitro (not shown).

[9] = mouse, in vivo
[10] = system: COLO 205 tumors; experiment: COLO 205 xenograft therapy; conditions: 0.4 mg/kg, q4dx8; 28-day treatment period
Procedure: NCr female athymic nude (nu/nu) mice, 4 to 8 weeks old, and male Swiss-Webster mice, 10 weeks old, were purchased from Taconic Farms. […] Tumor volume (TV) was determined by measurements in 2 dimensions using calipers, with volumes defined as: L×w^2/2, where L is the longest dimension of the tumor and w is the shortest. […] This dosing frequency reflected a consideration of the conjugate's serum half-life in vitro, to allow a more continuous exposure to the ADC.

[11] = system: SK-MES-1 human squamous cell lung tumors; experiment: SK-MES-1 xenograft therapy; type: in vivo, nude mice; conditions: 0.4 mg/kg; 28 days
Procedure: Therapeutic efficacy of hRS7-SN-38 ADC in several solid tumor-xenograft disease models.
Tumor volume (TV) was determined by measurements in 2 dimensions using calipers, with volumes defined as: L×w^2/2, where L is the longest dimension of the tumor and w is the shortest.

IMMU-132
confirmed complete responses (CR) ([1]; 10 mg/kg): 2
partial responses (PR) ([1]; 10 mg/kg): 13
time to progression, range ([1]; 10 mg/kg): 2.9 to 14.2 months
clinical benefit rate (PR+SD>6 months) ([1]; 17 TNBC patients): 46%
PD ([1]; of 8 assessable patients): 2
PR ([1]; of 8 assessable patients): 2
decrease in serum CA19-9 titers ([2]; 3 patients with stable disease): 23 to 72%
duration of stable disease, range ([2]; 8 patients): 8 to 21.4 wks
stable disease ([2]; 13 CT-assessable PDC patients): 62%
median TTP / duration of SD ([2]; CT-assessable PDC patients, 8.0 weeks in last prior therapy): 12.7 wks
TTP, range ([2]; PDC patients): 2 to 21.4 wks
time to progression, range ([2]; Phase I, N=7): 1.0 to 4.0 months
median TTP ([2]; all 14 PDC patients): 11.9 wks
PD ([3]; of 18 assessable patients): 6
PR ([3]; of 18 assessable patients): 1
maximum reduction in target lesions ([3]; person, after 10 months): 65%
plasma CEA after treatment ([3]; person, from 781 ng/mL): 26.5 ng/mL
serum hRS7 IgG, Max ([4]; 8 mg/kg): 249.0 µg/mL
serum hRS7 IgG, Min ([4]; 8 mg/kg): 96.0 µg/mL
serum intact ADC, Max ([4]; 8 mg/kg): 169.3 µg/mL
serum intact ADC, Min ([4]; 8 mg/kg): 95.0 µg/mL
serum hRS7 IgG, Mean ([4]; 8 mg/kg, N 7): 193.1 µg/mL
serum intact ADC, Mean ([4]; 8 mg/kg, N 7): 141.5 µg/mL
serum hRS7 IgG, Max ([4]; 10 mg/kg): 285.85 µg/mL
serum hRS7 IgG, Min ([4]; 10 mg/kg): 152.00 µg/mL
serum intact ADC, Max ([4]; 10 mg/kg): 237.39 µg/mL
serum intact ADC, Min ([4]; 10 mg/kg): 144.00 µg/mL
serum hRS7 IgG, Mean ([4]; 10 mg/kg, N 5): 203.35 µg/mL
serum intact ADC, Mean ([4]; 10 mg/kg, N 5): 185.77 µg/mL
serum hRS7 IgG, Max ([4]; 12 mg/kg): 400.0 µg/mL
serum hRS7 IgG, Min ([4]; 12 mg/kg): 168.9 µg/mL
serum intact ADC, Max ([4]; 12 mg/kg): 311.0 µg/mL
serum intact ADC, Min ([4]; 12 mg/kg): 98.0 µg/mL
serum hRS7 IgG, Mean ([4]; 12 mg/kg, N 9): 239.2 µg/mL
serum intact ADC, Mean ([4]; 12 mg/kg, N 9): 183.3 µg/mL
serum hRS7 IgG, Max ([4]; 18 mg/kg): 499.00 µg/mL
serum hRS7 IgG, Min ([4]; 18 mg/kg): 321.48 µg/mL
serum intact ADC, Max ([4]; 18 mg/kg): 423.00 µg/mL
serum intact ADC, Min ([4]; 18 mg/kg): 162.80 µg/mL
serum hRS7 IgG, Mean ([4]; 18 mg/kg, N 3): 409.16 µg/mL
serum intact ADC, Mean ([4]; 18 mg/kg, N 3): 258.27 µg/mL
SN-38 in serum bound to IgG, peak samples ([4]; 30 min after end of infusion): > 96%
SN-38 in serum bound to IgG ([4]; HPLC): > 95%
clearance of conjugate from serum ([4]; human, in vivo): ≤ 3 days
SN-38 bound to IgG, peak sample ([4]; one patient, 12 mg/kg): 4000 ng/mL
free SN-38, 30-min serum ([4]; patient 15): 88 to 102 ng/mL
free SN-38 as share of total SN-38 ([4]; patient 15): 2.4% to 3.6%
total SN-38, 30-min serum ([4]; patient 15, 6th cycle, 6.0 mg/kg): 2,381 ng/mL
total SN-38, 30-min serum ([4]; patient 15, C1D1, 12 mg/kg): 3,930 ng/mL
total SN-38, 30-min serum ([4]; patient 15, C1D2, 9.0 mg/kg): 2,947 ng/mL
SN-38G share of total SN-38+SN-38G ([4]; patient #25, 13.5 mg/kg): 11.6%
total SN-38 (acid-hydrolyzed), average ([4]; patient #25, 13.5 mg/kg, 11 peak samples): 3309.8 ± 601.8 ng/mL
SN-38G share of total unbound SN-38+SN-38G ([4]; patient #25, 18 mg/kg): 14.4%
free SN-38 (non-hydrolyzed) ([4]; patient #25, 18 mg/kg): 155.2 ng/mL
total SN-38 (acid-hydrolyzed) ([4]; patient #25, 18 mg/kg): 5,089 ng/mL
intact conjugate in trough samples ([4]; serum drawn immediately before next dose): no sacituzumab govitecan could be detected
PD ([5]; of 4 assessable patients): 2
PR ([5]; of 4 assessable patients): 2
PR ([5]; out of 25 assessable patients, 8 or 10 mg/kg): 6
duration of maintained disease control ([6]; 12 patients): 16-36 weeks
long-term stable disease ([6]; 24 assessable patients, Phase I): Over 80%
disease response ([6]; 48 assessable patients (excluding PDC)): 79%
TTP, range ([6]; 48 patients): 6.0 to 51.4 wks
time to progression (TTP) ([6]; 48 patients): ≥ 12.6 wks
patients with partial response ([6]; Phase I, 25 patients): 3
patients with progression (PD) ([6]; Phase I, 25 patients): 7
patients with stable disease ([6]; Phase I, 25 patients): 15
responses or disease stabilization after prior topoisomerase I inhibitor ([6]; human, in vivo): 7 of 9
PD ([6]; of 48 assessable patients): 14
PR ([6]; of 48 assessable patients): 7
MTD ([7]; cynomolgus monkey, in vivo): 2×0.96 and 1.92
human equivalent dose of MTD ([7]; cynomolgus monkey, in vivo): 2×0.3 to 0.6
blood counts ([7]; cynomolgus monkey, in vivo, 0.96 mg/kg): only transient decreases in blood counts
tolerated dose ([7]; mild and reversible toxicity): 0.96 mg/kg/dose
p21^Waf1/CiP1 expression over free SN-38 [8]: more than 2 fold
chloride levels, range [9]: 116 to 127 mmol/L
glucose levels, range ([9]; 8 mg/kg): 273 to 320 mg/dL

hRS7 IgG
tumor volume (TV) [10]: 1.77±0.93 cm^3
tumor volume (TV) [11]: 1.30±1.08 cm^3
